T1: Human IL2Rγ extracellular domain expressed with a C-terminal myc-myc-hexahistidine tag (human)
T1 construct: also called hIL-2Rg-MMH; hIL-2RG-MMH
T1 chain: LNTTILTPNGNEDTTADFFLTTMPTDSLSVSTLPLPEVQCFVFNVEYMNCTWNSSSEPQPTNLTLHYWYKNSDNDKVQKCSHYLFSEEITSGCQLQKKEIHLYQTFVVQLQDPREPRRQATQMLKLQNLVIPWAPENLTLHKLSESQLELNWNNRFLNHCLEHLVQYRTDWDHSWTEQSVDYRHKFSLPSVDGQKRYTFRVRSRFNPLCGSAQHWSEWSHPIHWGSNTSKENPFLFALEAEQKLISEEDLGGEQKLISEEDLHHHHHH

T2: Macaca fascicularis IL2Rγ extracellular domain expressed with a C-terminal myc-myc-hexahistidine tag (Macaca fascicularis)
T2 construct: also called mfIL-2Rg-MMH; mfIL-2RG-MMH
T2 chain: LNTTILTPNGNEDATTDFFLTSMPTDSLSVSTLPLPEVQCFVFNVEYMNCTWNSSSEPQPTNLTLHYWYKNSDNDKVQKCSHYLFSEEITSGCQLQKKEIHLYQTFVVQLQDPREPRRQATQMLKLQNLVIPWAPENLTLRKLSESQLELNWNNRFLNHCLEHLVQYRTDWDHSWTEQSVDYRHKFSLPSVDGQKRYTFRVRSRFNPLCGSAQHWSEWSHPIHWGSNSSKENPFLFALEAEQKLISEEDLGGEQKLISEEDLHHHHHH


Tests used:
[1] = biological target: T1, Human IL2Rγ extracellular domain …; experiment: SPR, captured mAb, 25C, dissociation pH 7.4
Description: (§1) The dissociation rate constant (kd) for binding of IL-2Rγ reagents to purified anti-IL2Rγ monoclonal antibodies was determined using a real-time surface plasmon resonance based Biacore 4000 biosensor platform. […] The CM5 Biacore sensor surface derivatized by amine coupling with monoclonal mouse anti-human Fc antibody (GE, Catalog # BR-1008-39) was used to capture anti-IL2Rγ monoclonal antibodies expressed with human IgG4 Fc. All the IL2Rγ reagents were expressed with a C-terminal myc-myc-hexahistidine tag (subsequently referred to with a -MMH suffix). […] The dissociation of bound IL-2Rg-MMH was performed in PBS-T-pH7.4 or PBS-T-pH6.0 running buffers for 6 minutes.
(§2) Dissociation rate constants (kd) in two running buffers were determined by fitting the real-time binding sensorgrams to a 1:1 binding model using Scrubber 2.0c curve-fitting software. Values of dissociation rate for […] mAb binding to hIL-2RG-MMH and mfIL-2RG-MMH at 25° C. and 37° C. in PBS-T-pH7.4 and PBS-T-pH6.0 is shown in Table 2-1 through Table 2-8.

[2] = biological target: T2, Macaca fascicularis IL2Rγ extracellular …; experiment: SPR, captured mAb, 25C, dissociation pH 7.4
Description: as §1, §2

[3] = biological target: T1, Human IL2Rγ extracellular domain …; experiment: SPR, captured mAb, 25C, dissociation pH 6.0
Description: as §1, §2

[4] = biological target: T2, Macaca fascicularis IL2Rγ extracellular …; experiment: SPR, captured mAb, 25C, dissociation pH 6.0
Description: as §1, §2

[5] = biological target: T1, Human IL2Rγ extracellular domain …; experiment: SPR, captured mAb, 37C, dissociation pH 7.4
Description: as §1, §2

[6] = biological target: T1, Human IL2Rγ extracellular domain …; experiment: SPR, captured mAb, 37C, dissociation pH 6.0
Description: as §1, §2

Binder | 100 nM Ag Bound (RU) [1] [RU] | koff [1] [s⁻¹] | t1/2 [1] [min] | 100 nM Ag Bound (RU) [2] [RU] | koff [2] [s⁻¹] | t1/2 [2] [min] | 100 nM Ag Bound (RU) [3] [RU] | koff [3] [s⁻¹] | t1/2 [3] [min] | 100 nM Ag Bound (RU) [4] [RU] | koff [4] [s⁻¹] | t1/2 [4] [min] | 100 nM Ag Bound (RU) [5] [RU] | koff [5] [s⁻¹] | t1/2 [5] [min] | 100 nM Ag Bound (RU) [6] [RU] | koff [6] [s⁻¹] | t1/2 [6] [min]
H4H12859P (antibody, human IgG4 S228P, kappa, V domains shown, anti-IL2Rgamma mAb expressed with human IgG4 Fc) VH: QVQLVQSGAEVKKPGASVRVSCKASGYTFTDYDIHWVRQAPGHGLEWMGWINPNSGGTNYAQKFQGRVTMTRDTSISTVYMDLSRLRSDDTAVYYCARADYSSSYYYYGMDVWGQGTTVTVSS VL: not shown | 54 | 0.00111 | 10 | 51 | 0.000871 | 13 | 39 | 0.00503 | 2.3 | 37 | 0.00413 | 2.8 | 55 | 0.00454 | 2.5 | 36 | 0.0132 | 0.9
H4H12922P2 (antibody, human IgG4 S228P, kappa, V domains shown, anti-IL2Rgamma mAb expressed with human IgG4 Fc; also called REGN7256) VH: QVQLVESGGGVVKPGGSLRLSCAASGFTFSNSGIHWVRQAPGKGLEWVALISYAGSNKYYADSVKGRFTISRDNSKNTLSLQMNSLRAEDTAVYYCAKEVWTGTYDSFDMWGRGTMVTVSS VL: not shown | 164 | 0.000204 | 57 | 168 | 0.000191 | 61 | 126 | 0.00118 | 10 | 129 | 0.00111 | 10 | 184 | 0.000773 | 15 | 147 | 0.00374 | 3
H4H12913P2 (antibody, human IgG4 S228P, kappa, V domains shown, anti-IL2Rgamma mAb expressed with human IgG4 Fc) VH: EVQLVESGGGVVRPGGSLRLSCAASGFTFDDYGMSWVRQAPGKGLEWISSINRNGGSADYADSVKGRFTISRDNAKNSLFLQMSSLRAEDTALYHCASGEFRFDYWGQGTLVTVSS VL: not shown | 56 | 0.000303 | 38 | 57 | 0.000272 | 43 | 43 | 0.00105 | 11 | 44 | 0.000992 | 12 | 82 | 0.00116 | 10 | 59 | 0.00383 | 3
H4H12927P2 (antibody, human IgG4 S228P, kappa, V domains shown, anti-IL2Rgamma mAb expressed with human IgG4 Fc) VH: EVQLVESGGGVVRPGGSLRLSCATSGFTFDDYGMSWVRQVPGKGLEWVSSVNRNGGTTDYADSVKGRFTISRDNAKRSLFLQMNSLRAEDTALYHCATGELFFDYWGQGTLVTVSS VL: not shown | 36 | 0.00163 | 7 | 38 | 0.000984 | 12 | 30 | 0.00499 | 2.3 | 30 | 0.0032 | 3.6 | 23 | 0.00982 | 1.2 | 19 | 0.0239 | 0.5
H4H12858P (antibody, human IgG4 S228P, kappa, V domains shown, anti-IL2Rgamma mAb expressed with human IgG4 Fc; also called REGN9433) VH: EVQLVESGGDLVQPGGSLRLSCTASGFIFRNYAMNWVRQAPGKGLEWLSGILGSNDNTYYVDSVKGRFTISRDNSRNTLYLQMNSLRAEDSAVYYCAKGDAGGFDYWGQGTLVTVSS VL: DVVMTQSPLSLPVILGQPASISCRSSQSLVSSDGNTYLNWFQQRPGQSPRRLIYKVSNRDSGVPDRFSGSGSGTDFTLKISRVEAEDVGAYYCMQGSYWPPTFGQGTKLEIKR | 111 | 0.000184 | 63 | 111 | 0.000171 | 68 | 103 | 0.000377 | 31 | 100 | 0.000385 | 30 | 141 | 0.000661 | 17 | 136 | 0.00172 | 7
H4H13538P (antibody, human IgG4 S228P, kappa, V domains shown, anti-IL2Rgamma mAb expressed with human IgG4 Fc) VH: EVQLVESGGGLVQPGGSLGLSCAASGFTFSNYAMSWVRQAPGKGLEWVSAVSGGGGGTYYADSVKGRFTISRDNSKNTVLLQMNSLRAEDTAVYYCARGRTGGLDYWGPGTLVTVSS VL: DVVMTQSPLSLPVIFGQPASISCRSSQSLVDSDGNTYLNWLQQRPGQSPRRLIYEVSNRDSGVPDRFSGSGSGTDFTLTISRVEAEDVGIYYCMQGTRWPPTFGGGTKVEIKR | 82 | 0.000139 | 83 | 94 | 0.000179 | 65 | 93 | 0.000417 | 28 | 96 | 0.000439 | 26 | 110 | 0.000599 | 19 | 120 | 0.00148 | 8

Reference: US20200247894A1 (Regeneron, published 2020)
